Measurements from patent publication US20250361544A1, “TYPE III-D CRISPR-CAS SYSTEM AND USES THEREOF” (BOARD OF REGENTS, THE UNIVERSITY OF TEXAS SYSTEM, published 2025).

Assays:
[1] = biological target: T1, Csx19 subunit of the Synechocystis sp. PCC 6803 Type III-Dv complex (Synechocystis sp. PCC 6803); test: cryo-EM structure of the binary complex, 2.5 Å
T1 construct: Untagged, co-expressed from pPF2434 in E. coli; one copy in the complex
T1 chain: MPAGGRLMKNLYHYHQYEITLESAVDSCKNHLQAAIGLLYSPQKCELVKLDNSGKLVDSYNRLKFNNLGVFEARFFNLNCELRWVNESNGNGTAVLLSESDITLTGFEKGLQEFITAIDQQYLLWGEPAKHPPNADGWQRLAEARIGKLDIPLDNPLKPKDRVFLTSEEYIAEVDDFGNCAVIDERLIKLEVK
Method: Fully assembled Type III-D binary complex was diluted to a concentration of 0.3 mg/ml in SEC buffer before 2.5 μl of sample was added to a quantifoil 1.2/1.3 grid that was glow discharged for 1 minute. Sample was applied to the grid in an FEI Vitrobot MarkIV kept at 100% humidity and 4° C. before blotting for 5.5 seconds with a force of 0. For the ssRNA target-bound complex, non-self ssRNA was mixed with the binary complex with a 2:1 molar ratio of RNA:Binary complex in SEC buffer to a final protein concentration of 0.3 mg/mL. Grids of the target-bound complex were frozen identical to that of the binary complex. Both grids were loaded to an FEI Titan Krios (Sauer Structural Biology Lab, University of Texas at Austin) operating at 300 kV. Images were taken at a pixel size of 0.81 Å/pixel with a dose rate of 10.6 e⁻/pixel/s for 5 seconds using a Gatan K3 direct electron detector, giving a final dosage of 80.5 e⁻/Å². Data collection was automated using SerialEM using a defocus range of −1.2 to −2.2 μm.
To delineate the architecture of this Type III-Dv effector, we used cryo-EM to determine a 2.5-Å resolution structure of the complex containing the nt crRNA (FIG. 1e,f, FIG. 8). To gain preliminary insights, we generated initial models of each subunit using Alphafold 2. […]

[2] = biological target: T2, Type III-Dv subunits co-expressed without Csx19 (Cas7-Cas5-Cas11, Cas7-2x and Cas7-insertion, with crRNA) (Synechocystis sp. PCC 6803); test: His-tag affinity purification and SEC of the ΔCsx19 co-expression; SDS-PAGE
T2 construct: These are the subunits left beside His-tagged Cas10 when csx19 carries a nonsense mutation (pPF3089); they are grouped here only as the prey set of the ΔCsx19 pulldown; also called ΔCsx19 complex; ΔCsx19 type Type III-Dv complex
T2 sequence (chain, as listed by the source limits assumed, chain 1 of 3): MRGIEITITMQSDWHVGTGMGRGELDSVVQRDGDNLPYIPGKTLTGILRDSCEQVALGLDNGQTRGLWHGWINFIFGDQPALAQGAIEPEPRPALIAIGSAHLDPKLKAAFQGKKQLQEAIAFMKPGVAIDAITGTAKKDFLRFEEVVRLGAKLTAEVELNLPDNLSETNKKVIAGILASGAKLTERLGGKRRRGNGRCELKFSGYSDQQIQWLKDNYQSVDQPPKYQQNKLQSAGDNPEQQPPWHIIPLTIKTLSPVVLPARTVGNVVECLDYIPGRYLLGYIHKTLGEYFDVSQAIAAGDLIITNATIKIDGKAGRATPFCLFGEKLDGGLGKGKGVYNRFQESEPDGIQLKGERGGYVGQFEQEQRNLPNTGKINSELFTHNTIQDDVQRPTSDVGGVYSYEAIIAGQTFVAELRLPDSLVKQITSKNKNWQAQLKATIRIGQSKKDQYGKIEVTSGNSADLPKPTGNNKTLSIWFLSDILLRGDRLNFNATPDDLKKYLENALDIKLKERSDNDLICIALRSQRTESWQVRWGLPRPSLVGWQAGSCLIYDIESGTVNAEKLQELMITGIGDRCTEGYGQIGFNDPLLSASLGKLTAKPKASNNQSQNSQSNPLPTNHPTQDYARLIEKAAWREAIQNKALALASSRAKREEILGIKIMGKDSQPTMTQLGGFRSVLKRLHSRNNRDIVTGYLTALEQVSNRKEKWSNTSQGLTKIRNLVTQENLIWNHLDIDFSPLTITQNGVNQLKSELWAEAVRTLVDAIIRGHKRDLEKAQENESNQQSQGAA
T2 sequence (chain, as listed by the source limits assumed, chain 2 of 3): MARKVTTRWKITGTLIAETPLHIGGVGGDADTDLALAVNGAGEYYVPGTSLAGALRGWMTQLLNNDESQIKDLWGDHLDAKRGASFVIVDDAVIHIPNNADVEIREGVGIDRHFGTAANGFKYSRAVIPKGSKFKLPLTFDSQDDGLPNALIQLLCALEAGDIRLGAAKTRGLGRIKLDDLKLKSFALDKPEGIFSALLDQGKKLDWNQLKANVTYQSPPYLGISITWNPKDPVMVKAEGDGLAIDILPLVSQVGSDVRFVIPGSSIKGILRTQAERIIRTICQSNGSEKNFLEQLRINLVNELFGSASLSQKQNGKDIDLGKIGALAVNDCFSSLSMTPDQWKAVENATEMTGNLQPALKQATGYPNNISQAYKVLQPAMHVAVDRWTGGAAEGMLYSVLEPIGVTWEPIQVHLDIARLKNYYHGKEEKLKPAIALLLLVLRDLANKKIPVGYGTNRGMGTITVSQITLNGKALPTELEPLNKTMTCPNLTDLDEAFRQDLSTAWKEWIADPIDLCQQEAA
T2 sequence (chain, as listed by the source limits assumed, chain 3 of 3): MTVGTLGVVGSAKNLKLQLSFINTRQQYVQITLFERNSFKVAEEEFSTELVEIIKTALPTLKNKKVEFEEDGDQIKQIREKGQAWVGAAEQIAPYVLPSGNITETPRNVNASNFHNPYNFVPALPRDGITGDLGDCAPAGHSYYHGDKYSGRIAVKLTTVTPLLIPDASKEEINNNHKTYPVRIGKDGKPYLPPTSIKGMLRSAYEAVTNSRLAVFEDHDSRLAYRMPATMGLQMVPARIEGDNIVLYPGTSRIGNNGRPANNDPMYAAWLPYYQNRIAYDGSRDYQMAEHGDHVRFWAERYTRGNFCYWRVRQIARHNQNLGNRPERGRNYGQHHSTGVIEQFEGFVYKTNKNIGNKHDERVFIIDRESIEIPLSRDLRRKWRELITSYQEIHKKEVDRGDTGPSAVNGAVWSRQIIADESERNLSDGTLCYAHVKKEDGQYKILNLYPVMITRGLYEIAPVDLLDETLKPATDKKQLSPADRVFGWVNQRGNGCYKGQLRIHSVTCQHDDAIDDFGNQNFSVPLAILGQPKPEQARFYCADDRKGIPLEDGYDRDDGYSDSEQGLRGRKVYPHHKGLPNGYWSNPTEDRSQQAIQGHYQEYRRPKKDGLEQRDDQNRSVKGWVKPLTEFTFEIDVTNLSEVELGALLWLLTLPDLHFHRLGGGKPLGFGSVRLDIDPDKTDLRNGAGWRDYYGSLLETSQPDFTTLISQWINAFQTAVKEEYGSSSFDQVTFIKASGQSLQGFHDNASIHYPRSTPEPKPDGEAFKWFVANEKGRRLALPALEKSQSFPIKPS

[3] = biological target: T3, Cas6-2a of Synechocystis sp. PCC 6803 (Synechocystis sp. PCC 6803); test: metal affinity (His6-Cas10) and size-exclusion co-purification from E. coli; SDS-PAGE and mass spectrometry
T3 construct: The Results say cas6-2a was cloned and expressed with the operon
T3 chain: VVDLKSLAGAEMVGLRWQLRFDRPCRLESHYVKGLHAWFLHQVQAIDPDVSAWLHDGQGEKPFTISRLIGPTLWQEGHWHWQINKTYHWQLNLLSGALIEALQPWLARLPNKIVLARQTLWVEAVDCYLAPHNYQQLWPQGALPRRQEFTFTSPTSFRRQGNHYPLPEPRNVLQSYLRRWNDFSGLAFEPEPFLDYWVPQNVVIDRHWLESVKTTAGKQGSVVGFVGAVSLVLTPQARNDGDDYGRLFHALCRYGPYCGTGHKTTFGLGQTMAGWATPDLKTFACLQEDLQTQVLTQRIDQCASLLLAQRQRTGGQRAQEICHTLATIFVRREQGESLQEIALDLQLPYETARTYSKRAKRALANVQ
Method: The sample was applied to a second HisTrap column; however, due to inefficient TEV cleavage, the complex unexpectedly bound the column and eluted with high imidazole. The complex was further purified by size exclusion chromatography (SEC) on a HiLoad 16/600 Superdex 200 column (GE Healthcare) equilibrated in SEC Buffer). Mutant Type III-Dv complexes were similarly expressed and purified, except TEV protease was omitted. Purified complexes were typically concentrated to 1.5 mg/ml using a centrifugal concentrator (Amicon; 100 kDa MWCO), aliquoted, and stored at −80° C.
Denaturing liquid chromatography mass spectrometry (LC-MS) was performed on a Dionex UltiMate 3000 nanoLC system coupled to a Thermo Orbitrap Fusion Lumos Tribrid mass spectrometer (San Jose, Ca). The trap column (3 cm) and analytical column (30 cm) were packed in-house with polymer reverse-phase (PLRP) packing material. Approximately 80 ng of the CRISPR complex were injected and subjected to reverse-phase chromatography, utilizing water with 0.1% formic acid as mobile phase A (MPA), and acetonitrile with 0.1% formic acid as mobile phase B (MPB). Forward trapping occurred for 5 minutes at 2% MPB at a flow rate of 5 μL/min at the trap column. Elution onto the analytical column (at 0.3 μL/min) occurred by increasing MPB to 10% over a 3-minute gradient followed by an increase to 35% MPB over 32 minutes. […]

B1: Cas10 subunit of the Synechocystis sp. PCC 6803 Type III-Dv CRISPR-Cas complex, with N-terminal His6 tag and TEV site (other)
chain: MFLVLIETSGNQHFIFSTNKLRENIGASELTYLATTEILFQGVDRVFQTNYYDQWSDTNSLNFLADSKLNPAIDDPKNNADIEILLATSGKAIALVKEEGKAKQLIKEVTKQALINAPGLEIGGIYVNCNWQDKLGVAKAVKEAHKQFEVNRAKRAGANGRFLRLPIAAGCSVSELPASDFDYNADGDKIPVSTVSKVKRETAKSAKKRLRSVDGRLVNDLAQLEKSFDELDWLAVVHADGNGLGQILLSLEKYIGEQTNRNYIDKYRRLSLALDNCTINAFKMAIAVFKEDSKKIDLPIVPLILGGDDLTVICRGDYALEFTREFLEAFEGQTETHDDIKVIAQKAFGVDRLSACAGISIIKPHFPFSVAYTLAERLIKSAKEVKQKVTVTNSSPITPFPCSAIDFHILYDSSGIDFDRIREKLRPEDNTELYNRPYVVTAAENLSQAQGYEWSQAHSLQTLADRVSYLRSEDGEGKSALPSSQSHALRTALYLEKNEADAQYSLISQRYKILKNFAEDGENKSLFHLENGKYVTRFLDALDAKDFFANANHKNQGE
notes: Whole gene amplified from Synechocystis genomic DNA and co-expressed in E. coli from pPF2434; The complex also holds a 37-nt crRNA; also called His6-TEV-Cas10; N-His6-tagged Cas10; not shown: TEV cleavage was inefficient, so
binding result [1]: binds | binding result [2]: no binding | binding result [3]: no binding
